Test results: the DeepSol protein solubility set

Assay: soluble on expression in E. coli; label from the status in PepcDB or PDB records
In the case of “MGSDKIHHHHHHMRDQAESLRRMVDGVMEQGRGQGKVIAVVSGKGGVGKSNVSLNFALTLSRQNQKVALIDLDLGMGNLDILMGLSPSYHIIDMIKRELTIWDIAEQGPEGITYIAGGSGLSELVELNERQMERFFQQLESLGAIYDYIILDMGAGATAESLRFILSAHEIFVVTTPEPTSITDAYAMVKYICKEPIENPEILLIVNRAESKREGEQTAANFKRVVSHFLKKDIHSLGYLPQDSHVVKAVKAQAPFVLHAPQAKASMAMGKLVHTYLGHRVDRGAPSYQSFMKKIRKWFR”, the “soluble on expression in E. coli” value was “not soluble”.
With “MGSDKIHHHHHHMREDFTNEIVTESLNEAGILVEKPSEIRRHFDDLQFDSRKVTKKNTLFVVKGAFKIEYLTASLLDKISGIVTSRKEKINIPNLPHWIVSNSQIALAVLSAEFFGHPEKKLKILGITGTKGKTSSTYMAYSLLDRLTNHQTAMFSTIDTFLGRGIKFKSELTTPESYELFSNMKKALDNGNKYLVMEVSSQSYLKNRVFGIHFKVGAFLNISPDHIGINEHPTFADYLAHKKMLAENSDVFVSNIDDAHGQEFIDHAKSFGAKTVSVSENKKADVNFHIKKADLDESIFYLTEKGNSQEFLLDIPGVFNIYNASVAIAMVREMGFKPEKAKKALAELQIPGRMVKIKTKSHGLIIVDYAHNGQAVTTLLTFLKSQHQGGKIIIVLGSPGDKGEDRRSQFGEVISKFVDVAYLTTDDPGTEDPHQINNQIRKAISNPNVELHEELDRSKAIQEAIKKANINDLVVLAAKGEDAFQKTNHVDVPYLGDKKVAEEFLAEIEKV” the “soluble on expression in E. coli” value was “not soluble”.
With “MGSDKIHHHHHHMRENKVVYGLIGYGGMGRWHTEILSNVPEAVIGGIYDIKEEKREEAKAKGFSVYETEEAMLADSDIDVVLIATPNDCHKPIAIRAMHAGKNVISEKPVTLSSADLLEMEKVAKETGKLFTVHQNRRWDDDFLIIKKLVEEQKLGHVFRIESRVHGSRGIPGDWRKEKVHGGGMVLDWGVHLLDQILYMYGDRKIETVYASLTNITNQEVDDGFTAILTFEGGTEVLVEVGTNNYISLPRWYVLGKDGTAVIRDWQLTGEIIRKTGKTEETVIPVKTAAGLTKTMAPRREDTIVKEDLPKVSGDIADFHRNVVAVIRDGAEPEIKLFQVMRVMKLMEAIFQAAETKQVIEFQDQV” the “soluble on expression in E. coli” value was “not soluble”.
With “MGSDKIHHHHHHMRESVVKLNEYTLRIFSLNTIVVGSGAAGLNAVDRVFSFGQKDVALLTDNLKWGTSRNTGSDKQTYYKLTLAGNVPDSVYELAETLFNGGSMDGDIALVEAALSARAFFRLVELGVPFPHSRYGEYVGYKTDHDPKQRATSAGPLTSYYMCEKLLEEIRRKGIKIFEGYQVIGILTDRNEEKTIGLIALDLNNIDDPEKRYVLFNVKNIIYATGGPAGMFYFHSVYPPVHFGATGIAFEAGVMGKNLTEWQFGIASKKFRWNLSGTYQQVIPRYVSTDENGNDEREFLEEYFPDPSTMLNAIFLKGYQWPFDVRKIKNYGSSLIDILVFYETVIKGRRVWLDFTRNPSWGSKNGELDFSLLGKEAYEYLKNSGALFGRPIDRLEKMNRPAIEVYLQHGIDLRKEYLEIGVCAQHNNGGLHGNIWWESNLKHFFPVGEVNGSHGVYRPGGSALNSGQVGGVRAAQYIVENYSGDPLCEEEILEEAKDQILKKIELGESFVKKITGKSNVSSILKEISERSMRSMGIVRSLEEAGKGKNEALRDFNNLIEKVELSSIRQLPFAFRLYDVLLTQYVYLSAVENYIESGGKSRGSYIVHDPTGELPVPNLPEMFRYSLAGESFNKKIQRVRCKENRCEFFWDPVKEIPREDTWFETIWNSFMRREVFR” the “soluble on expression in E. coli” value was “not soluble”.
With “MGSDKIHHHHHHMRFAPPNPLRIADRASGLNSLSVRSYNERLVLSLLLQNEATTRLEIGEKTGLSAQTISVIVRSLEQEGLVVRGEAQKGRVGPPTTPLMLNSEGAYSVGVSVGYHNTHIVVVDFIGNVQHHRVMPHKAADTFDAPEALALEIRLAVAGLSESRQARIAGVGLALPTPPIRSEPDHDVLHRYLEAEFGLPVFVQNDITAAAGGESLFGTARQLQDFLFFYLGARLHCRLVLNHQIYNGNSPLSYDVGVLALERRLPADSAMAEKLWGQDLSWPPLEATLADWQQACAENLIQLTQSLLQFIELRTVVLSSFVPAAICEALCRLVRQEIPSVNAVVGRTSAAPKAVGAASLPFSSRFMVN” the “soluble on expression in E. coli” value was “not soluble”.
With “MGSDKIHHHHHHMRFEEAGCHGEFIQADLTKLPFSEPKFDVIFSEGVLHHTDSTEKAIKYLTTLLIPGGHFLFYVYKTKAPIREFTDDYVRNQLINMDDSQAWNELRSLTLLGKILGDLNIEVEIPEPILLLGIPAGRINIQRLFYWYICKAFYNPEWTIDEMNHVNFDWYRPLNCHRHTPEEIMTWCNQAGLKIERMNVQEAGITVVAKKE” the “soluble on expression in E. coli” value was “not soluble”.
For “MGSDKIHHHHHHMRFSRIPPIFANVVRQTHYRNYANGVIKPREFNKVMVANRGEIAIRVFRALTELNKTSVAIYAEQDKNSMHRLKADEAYLVGKGLPPVAAYLTIDQIIETALKHNIDAIHPGYGFLSERSDFAAACQNAGIVFIGPSPDVMARMGDKVAARQAAIEAGVQVVPGTPGPITTADEAVEFAKQYGTPIILKAAYGGGGRGIRRVDKLEEVEEAFRRSYSEAQAAFGDGSLFVEKFVERPRHIEVQLLGDHHGNIVHLYERDCSVQRRHQKVVEIAPAPALPEGVREKILADALRLARHVGYQNAGTVEFLVDQKGNYYFIEVNARLQVEHTVTEEITGVDLVQAQIRIAEGKSLDDLKLSQETIQTTGSAIQCRVTTEDPAKGFQPDSGRIEVFRSGEGMGIRLDSASAFAGSVISPHYDSLMVKVIASARNHPNAAAKMIRALKKFRIRGVKTNIPFLLNVLRQPSFLDASVDTYFIDEHPELFQFKPSQNRAQKLLNYLGEVKVNGPTTPLATDLKPAVVSPPIPYIPAGAKPPTGLRDVLVQRGPTEFAKEVRSRPGCMITDTTFRDAHQSLLATRVRTYDMAAISPFVAQSFNGLFSLENWGGATFDVSMRFLHECPWERLQTLRKLIPNIPFQCLLRGANAMGYSNYPDNVIYKFCELAVKNGMDVFRVFDSLNYLPNLLVGMEAVGKAGGVVEAAIAYTGDVTDKSRDKYDLKYYLNLADQLVKAQAHILSIKDMAGVLKPEAAKLLIGALRDKFPDIPIHVHTHDTSGAGVAAMLECAKAGADVVDAAVDSMSGMTSQPSMGAIVASLQGTKHDTGLSLDDISKYSAYWESTRQLYAPFECATTMKSGNADVYKHEIPGGQYTNLQFQAFSLGLGPQFDEVKRMYREANLVLGDIIKVTPSSKIVGDLAQFMVQNNLTRETLVDRADDLSFPKSVVDFMQGNVGQPPYGFPEPLRTKVLRGKPKVDGRPGENAKPVDLDAVKVELEEKHGRTLSEEDVMSYSMFPTVFDEFETFRQQYGPVDKLPTRLFLTGLEIAEEVDVEIESGKTLAIQLLAEGKLNKRGEREVFFDLNGQMRSIFVVDKEASKEIVTRPRALPGVRGHIGAPMPGDVLELKIKEGDKVTKKQPLFVLSAMKMEMVIDSPIAGTVKAIHAPQGTKCSAGDLVVEVEP”, the “soluble on expression in E. coli” value was “not soluble”.
In the case of “MGSDKIHHHHHHMRGGNIKAIVYLPLDPEKAKQNNLPVKLPVLAEDLPKVLEEDRIPLDVILRGLEAQYEITKDEYYRSYYVFFLYEKFKQLLREGKLDEAEKILEKAKEVQYDYRYHFYRGLLLKHRGELGEAEIEMRLAISMNDRFAPAYFELAGILKEKNEIEDSLLFYEKAYEVNKEFLLPLLKKGDLLLEEGRLEEAIEEYRRILEKDSNFVEVYERLGVIYNQLQRFKEAEKFFKKALEIERKDHVEYNLSYTLIKLGKLFEALEILKRLYEKNPDDPMVANEYGLLLKTLGLYEEALEVFEDAYRRHKEEEILKYNYGTILLHFEKEKAVSILSEISGELKDRAEFMISLAEKDVVIPSYEEFEWLKDYFFEGTIDVVALSEEIDSEDEDAKRRIERLREGEFPFYDTTLDSSEMLEVILGIMFESPDIFKMEENAVKFVSAFYGSSVMIASTIVLTRTFQYFLAEEEPTMEELLRELVAETQDVNWKFSLRLARFRHADRFDFNRLSDLVIAFLQSIEQGTPVSDDERLKYLLEKLTFQKEG”, the “soluble on expression in E. coli” value was “not soluble”.
With “MGSDKIHHHHHHMRIAQVAPLWERVPPPAYGGIELVVGLLTDELVRRGHEVTLFASGDSISLANLVSVHPRALRLDSSVKEYGIYEMLQLSTVYERADEFDIIHSHMGCASLPYTKLVKTPTVHTLHGIFTPDNEKMFRYAKTEPFVSISDAQRDLRLGLNYVGTVYNGIDVNSYKFYPQPDEPPYLAFLGRISPEKGTHLAIEIAKKSGWHLKIAGKVDVVDVEYFEKEIKPLIDGKQIEYLGEADHTQKNVLMGGAVATLFPITWREPFGLVMVESMASGTPVIAMNLGSTTEVIAHGKTGFLCSNVEECVSAIAKVADLDRYTCREYVQNRFSLQAMTEGYEEVYRQILQQRFANNGHHRSTVALSKV” the “soluble on expression in E. coli” value was “not soluble”.
In the case of “MGSDKIHHHHHHMRILGIETSCDETGVAIYDEQRGLIANQLYSQIEMHADYGGVVPELASRDHIRKTLPLIQAALKEANLTASEIDGIAYTAGPGLVGALLVGATIARALAYAWNVPALAVHHMEGHLMAPMLEENPPEFPFIALLISGGHTQLIKVAGVGEYEILGESIDDAAGEAFDKTGKLLGLDYPAGVALSQLAEKGTPNRFVFPRPMTDRPGLDFSFSGLKTFAANTINAQLDENGQLNEQTRCDIAHAFQQAVVDTIIIKCKRALQQTGYSRLVMAGGVSANKQLRAELATMMQALKGQVYYPRPQFCTDNGAMIAYTGFIRLKKGEKTDLSVSVKPRWPMTTLLKLSAHHKV”, the “soluble on expression in E. coli” value was “not soluble”.
With “MGSDKIHHHHHHMRILSGMRPTGKLHIGHLVGALENWVKLQEEGNECFYFVADWHALTTHYDDVSKLKEYTRDLVRGFLACGIDPEKSVIFVQSGVKEHAELALLFSMIVSVSRLERVPTYKEIKSELNYKDLSTAGFLIYPVLQAADILIYKAEGVPVGEDQVYHIELTREIARRFNYLYDEVFPEPEAILSRVPKLPGTDGRKMSKSYGNIINLEISEKELEQTILRMMTDPARVRRSDPGNPENCPVWKYHQAFDISEEESKWVWEGCTTASIGCVDCKKLLLKNMKRKLAPIWENFRKIDEDPHYVDDVIMEGTKKAREVAAKTMEEVRRAMNLMF” the “soluble on expression in E. coli” value was “soluble”.
In the case of “MGSDKIHHHHHHMRKISVFDTTLRDGEQSAGVNLNFEEKMEIAKQLERLGVDIIEAGFPASSQGDFQSVKAIAETVKGSSVTGLARSVQKDIDAAWEALKSAEEPRIHLFIATSPIHMEHKLRMTPEQVIEKAVESVKYAASRFKHVQWSAEDASRSDFPFLAQIIEAVIQAGATVINLPDTVGYTTPQEIKRMFQYMKQNVPSIDKVSLSTHNHDDLGMAVANSLAAIQGGADQVECTINGIGERAGNASLEEIAVALNIRKDHYETETGLILKEIKRTSSLVSKLTGMVVPNNKAVVGANAFAHESGIHQDGVLKNKQTYEIITPEMVGVSSNSMVLGKHSGRHAFKTKVQELGFTGTDEQLNNIFKAFKDLADKKKEITEDDLFALMTEQTVGGETNHYELQTLQVNYGSNLTNTATITMKLPSGEVAEEAATGSGSVEAIYNTLERLLDAPVKLLDYRIQSITGGRDALADVYVQMDYQGVVSSGRGTAHDVLEASAKAYLNAVNRTINRKKYAEVYGSKVEV”, the “soluble on expression in E. coli” value was “not soluble”.
For “MGSDKIHHHHHHMRKKLISILVDGVSADTFEKHAHRLPNMRHLAERGLRVRRLKSAVPATSVPGRATMLTGVGPETHGIYGNHIFRGDASVAPLAEDLLVPTIATHARQAGLDVAAIGQALVNPRDTSVYVSPWWLRGFMTGYRFSKMVTPEALAASRAIHDPEDRLAKAGLTEMDAFRDAADGGAPHLISGLALDQFLNRAVVALLGSDRPPDLLLTEIEMPDAFQHYLGYDSPAGIWSVEFADMLIGNLLAVLERTGRREDYVIAVASDHGHGFVDTAIFPEAIIPDMHWMTEGASLYVSLKAAGDLERVTERLLPYGVELWNDHHVPENLRGTVAMFVAPPRHSFEERPSDASGPLVATGSPHLISTHGFRPGSPEDDRMFILSGGGIAPKVIKAADADQFAPTLASVLGLPLEPYAGRSLIAEESPIARSPQSLELHLK”, the “soluble on expression in E. coli” value was “not soluble”.
